Experimental data: patent publication US20090018074A1

Key:
[1] = biological target: Cad11-12 truncated Bt-R1a cadherin expressed in S2 cells (Manduca sexta); assay: 125I-Cry1Ab saturation binding on S2 cell suspensions; reference Cad12
[2] = biological target: Cad11-12 truncated Bt-R1a cadherin expressed in S2 cells (Manduca sexta); assay: 125I-Cry1Ab saturation binding on suspensions of S2 cells expressing the fragment
[3] = biological target: Cad12 truncated Bt-R1a cadherin expressed in S2 cells (Manduca sexta); assay: as above
[4] = biological target: Cad7-12 truncated Bt-R1a cadherin expressed in S2 cells (Manduca sexta); assay: as above
[5] = biological target: full length Bt-R1a cadherin expressed in Drosophila S2 cells (Manduca sexta); assay: 125I-Cry1Ab saturation binding on suspensions of S2 cells expressing full-length Bt-R1a
[6] = biological target: Cad7-12 truncated Bt-R1a cadherin expressed in S2 cells (Manduca sexta); assay: 125I-Cry1Ab saturation binding on suspensions of S2 cells expressing the fragment; dissociation constant (Kcom)
[7] = biological target: full length Bt-R1a cadherin expressed in Drosophila S2 cells (Manduca sexta); assay: 125I-Cry1Ab saturation binding on suspensions of S2 cells expressing full-length Bt-R1a; dissociation constant (Kcom)

## Cry1Ab toxin (ligand)
[1]
  fold concentration of binding sites against Cad12: 3 fold
[2]
  Bmax (concentration of receptors) (fmoles/mg protein): 3320
[3]
  Bmax (concentration of receptors) (fmoles/mg protein): 1410
[4]
  Bmax (concentration of receptors) (fmoles/mg protein): 506
[5]
  Bmax (concentration of receptors) (fmoles/mg protein): 625
[6]
  Kd: 2.05 nM
[7]
  Kd: 3.55 nM
